Data from publication PMC3428313.

Key:
[1] = system: C/EBPbeta isoform LAP, P17676-2; assay: competition EMSA; conditions: 20 mM HEPES pH 8.0, 1 mM MgCl2, 60 mM KCl, 0.1 mM EDTA, 15% glycerol, 1 ug poly dI-dC, 8 ug nuclear extract; 30 min room temperature then 15 min 4 C; gel at …
[2] = system: C/EBPbeta isoform LIP (Flag-LIP), P17676-3; assay: competition EMSA; conditions: 20 mM HEPES pH 8.0, 1 mM MgCl2, 60 mM KCl, 0.1 mM EDTA, 15% glycerol, 1 ug poly dI-dC, 8 ug nuclear extract; 30 min room temperature then 15 min 4 C; gel at …
C/EBPbeta isoform LIP (Flag-LIP), P17676-3, sequence (P17676 199-345): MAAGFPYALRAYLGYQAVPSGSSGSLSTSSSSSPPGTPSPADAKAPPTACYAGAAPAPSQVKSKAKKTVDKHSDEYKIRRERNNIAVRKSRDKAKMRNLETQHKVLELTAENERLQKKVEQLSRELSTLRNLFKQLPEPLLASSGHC

C/EBPbeta isoform LAP, P17676-2, sequence (P17676 24-345): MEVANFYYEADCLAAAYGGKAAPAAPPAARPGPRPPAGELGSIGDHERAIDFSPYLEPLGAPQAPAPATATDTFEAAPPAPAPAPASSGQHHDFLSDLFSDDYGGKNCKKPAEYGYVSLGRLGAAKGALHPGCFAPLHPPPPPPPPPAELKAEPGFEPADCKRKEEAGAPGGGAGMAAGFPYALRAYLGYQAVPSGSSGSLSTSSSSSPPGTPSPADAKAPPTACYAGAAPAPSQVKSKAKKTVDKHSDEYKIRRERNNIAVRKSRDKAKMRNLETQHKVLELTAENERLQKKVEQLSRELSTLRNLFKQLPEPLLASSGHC

Row | Sequence | Kd [1] | Kd [2]
1 | GCTTGCTTGCTTAAAGCCCT (double strand) [DS1 wild-type C/EBP site] | 50 10^-7 M | 17.5 10^-7 M
2 | GCTTGCTTGCTTAAAGACCT (double strand) [DS1C/A C/EBP site] | 24.8 10^-7 M | 5.1 10^-7 M
